Values of other authors as cited in publication PMC9705454 (Clinical Drug Investigation, 2022).

Assays:
[1] = metabolite slowly released from the subcutaneous depot

Row | half-life in circulation | Substance | share of plasma exposure accounted for by the main active metabolite [1] [%]
1 |  | insulin glargine | > 90
2 | approximately 2 h | teduglutide | 
